The results in this text go back to patent US20240425571A1 (OHIO STATE INNOVATION FOUNDATION, published 2024).

The target of experiment [1] is T1, human GARP (glycoprotein A repetitions predominant, LRRC32) on the cell surface (human, UniProt Q14392 20-662).
T1 construct: whole, on cells; also called hGARP; free GARP
T1 sequence (looked up): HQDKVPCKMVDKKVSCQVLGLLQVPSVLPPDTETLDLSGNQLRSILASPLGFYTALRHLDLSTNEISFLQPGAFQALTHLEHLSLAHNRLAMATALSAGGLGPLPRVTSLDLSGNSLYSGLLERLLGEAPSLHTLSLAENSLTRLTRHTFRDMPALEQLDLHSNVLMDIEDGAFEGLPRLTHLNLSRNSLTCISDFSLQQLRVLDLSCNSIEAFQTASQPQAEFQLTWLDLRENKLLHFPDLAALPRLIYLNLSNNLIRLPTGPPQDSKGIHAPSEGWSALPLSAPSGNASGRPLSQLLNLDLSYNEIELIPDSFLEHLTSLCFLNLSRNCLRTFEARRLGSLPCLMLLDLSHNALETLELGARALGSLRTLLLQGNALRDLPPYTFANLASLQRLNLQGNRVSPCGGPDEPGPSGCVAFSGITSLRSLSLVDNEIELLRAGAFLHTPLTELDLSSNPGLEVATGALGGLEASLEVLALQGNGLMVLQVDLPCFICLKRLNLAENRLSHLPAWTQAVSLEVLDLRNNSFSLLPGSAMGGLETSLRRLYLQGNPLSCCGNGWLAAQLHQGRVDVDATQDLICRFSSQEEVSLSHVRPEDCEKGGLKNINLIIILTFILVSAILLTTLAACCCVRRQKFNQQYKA
The experiment can be described thus: FACS, Ag(+) cells, 0 ug/ml antibody (blank).

Experiment [2] concerns the target T1, human GARP (glycoprotein A repetitions …). The experiment can be described thus: FACS, Ag(+) cells, culture supernatant, 1 ug/ml.
The target is the same in experiment [3]. The experiment can be described thus: FACS, Ag(+) cells, culture supernatant, 5 ug/ml.
The target is the same in experiment [4]. Put plainly: FACS, Ag(+) cells, culture supernatant, 0.2 ug/ml.
The target is the same in experiment [5]. Put plainly: FACS, Ag(+) cells, supernatant heated 70 C 5 min, 5 ug/ml.
The target is the same in experiment [6]. Put plainly: FACS, Ag(+) cells, heated-sample series, 0 ug/ml antibody (blank).
Experiment [7] concerns the target T2, human GARP (antigen, construct not stated) (human, UniProt Q14392 20-627, limits assumed).
T2 sequence (looked up): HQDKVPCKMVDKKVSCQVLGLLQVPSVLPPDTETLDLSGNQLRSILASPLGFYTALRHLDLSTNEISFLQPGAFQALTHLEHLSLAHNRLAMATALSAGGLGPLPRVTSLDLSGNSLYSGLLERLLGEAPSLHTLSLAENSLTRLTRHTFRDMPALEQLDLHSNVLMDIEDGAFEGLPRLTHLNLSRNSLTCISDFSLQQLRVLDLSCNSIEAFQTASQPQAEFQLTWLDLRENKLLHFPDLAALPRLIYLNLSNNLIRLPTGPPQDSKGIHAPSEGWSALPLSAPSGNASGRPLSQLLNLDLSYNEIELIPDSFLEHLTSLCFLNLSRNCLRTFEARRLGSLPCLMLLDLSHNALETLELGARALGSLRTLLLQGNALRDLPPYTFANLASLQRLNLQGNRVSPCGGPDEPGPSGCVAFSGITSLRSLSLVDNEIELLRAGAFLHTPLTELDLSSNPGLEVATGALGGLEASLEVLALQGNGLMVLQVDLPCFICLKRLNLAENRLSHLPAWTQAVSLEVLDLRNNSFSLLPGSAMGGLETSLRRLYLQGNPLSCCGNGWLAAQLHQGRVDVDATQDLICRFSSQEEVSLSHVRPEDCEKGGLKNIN
The experiment can be described thus: Gator label-free kinetics, IgG on anti-human Fc probe, antigen 5 ug/ml.

The target of experiment [8] is T1, human GARP (glycoprotein A repetitions …). Put plainly: FACS, Ag(+) cells, supernatant heated 70 C 5 min, 1 ug/ml.
Experiment [9] shares this target. The experiment can be described thus: FACS, Ag(+) cells, supernatant heated 70 C 5 min, 0.2 ug/ml.

B1: huPIIO-1VH1VL1 (antibody, V domains shown)
VH: QVQLQESGPGLVKPSQTLSLTCTVSGYSITSDYAWNWIRQFPGNKLEWMGYISYSGSTSYTPSLKSRVTISRDTSKNHFSLKLSSVTAADTAVYYCAKSGGDYYGSSSYWYFDVWGQGTMVTVSS
VL: DIVLTQSPSSLAVSLGERATMNCKSSQSLLNSRSQKNYLAWYQQKPGQPPKLLIYGASTRGSGVPDRFSGSGSGTDFTLTISSLQAEDVAVYYCQNDHSYPFTFGQGTKLEIKR
notes: Humanized 4D3/PIIO-1 IgG made in Expi293 cells; also called H1L1; HuPIIO-1VH1/L1
On to B1, for which the MFI stood at 9.91 MFI in experiment [1]; 25.8 MFI in [2]; 26.4 MFI in experiment [3]; 23.9 MFI in experiment [4]; 26.2 MFI in experiment [5]; 9.91 MFI in [6]. In experiment [7], this molecule gave a Kd of 8.05 nM. In addition, in experiment [7], the Req is 0.743. The molecule also displayed a Response in [7] of 0.737. In [7], this molecule yielded a kobs of 0.0134.

B2: huPIIO-1VH2VL2 (antibody, V domains shown)
VH: QVQLQESGPGLVKPSQTLSLTCTVSGYSITSDYAWNWIRQFPGNKLEWMGYISYSGSTSYTPSLKSRITISRDTSKNHFFLKLSSVTAADTAVYYCAKSGGDYYGSSSYWYFDVWGQGTMVTVSS
VL: DIVLTQSPSSLAVSLGERVTMNCKSSQSLLNSRSQKNYLAWYQQKPGQPPKLLIYGASTRGSGVPDRFSGSGSGTDFTLTISSVQAEDVAVYYCQNDHSYPFTFGQGTKLEIKR
notes: Humanized IgG from Expi293, tested as culture supernatant; also called H2L2; HuPIIO-1VH2/L2
Regarding B2, the MFI in experiment [1] was 9.91 MFI; in experiment [3] it was 26.2 MFI; in experiment [4] it was 23.2 MFI; in experiment [8], 24.8 MFI; in [5] it was 26.1 MFI; in experiment [9] it was 22.6 MFI. In experiment [6], the MFI was 9.91 MFI.

B3: huPIIO-1VH3VL1 (antibody, V domains shown)
VH: DVQLQESGPGLVKPSQTLSLTCTVSGYSITSDYAWNWIRQFPGNKLEWMGYISYSGSTSYTPSLKSRITISRDTSKNHFFLKLSSVTAADTATYYCAKSGGDYYGSSSYWYFDVWGQGTTVTVSS
VL: DIVLTQSPSSLAVSLGERATMNCKSSQSLLNSRSQKNYLAWYQQKPGQPPKLLIYGASTRGSGVPDRFSGSGSGTDFTLTISSLQAEDVAVYYCQNDHSYPFTFGQGTKLEIKR
notes: Humanized IgG from Expi293, tested as culture supernatant; also called H3L1; HuPIIO-1VH3/L1
For the molecule B3, the MFI in [1] was 9.91 MFI; in [2] it was 25.1 MFI; in experiment [3], 26.7 MFI; in experiment [4], 23.9 MFI; in [5] it was 25.7 MFI; in experiment [9], 23.6 MFI. In [6], the MFI stood at 9.91 MFI.

B4: huPIIO-1VH3VL2 (antibody, V domains shown)
VH: DVQLQESGPGLVKPSQTLSLTCTVSGYSITSDYAWNWIRQFPGNKLEWMGYISYSGSTSYTPSLKSRITISRDTSKNHFFLKLSSVTAADTATYYCAKSGGDYYGSSSYWYFDVWGQGTTVTVSS
VL: DIVLTQSPSSLAVSLGERVTMNCKSSQSLLNSRSQKNYLAWYQQKPGQPPKLLIYGASTRGSGVPDRFSGSGSGTDFTLTISSVQAEDVAVYYCQNDHSYPFTFGQGTKLEIKR
notes: Humanized IgG from Expi293, tested as culture supernatant; also called H3L2
Consider B4, for which the MFI in experiment [1] came out at 9.91 MFI; in [2] it was 24.9 MFI; in [3], 26.4 MFI; in experiment [4], 22.7 MFI; in [8] it was 24.6 MFI; in experiment [5] it was 26.5 MFI. The figures for the MFI in experiment [9] and in [6] were 22.7 MFI and 9.91 MFI, respectively.

B5: huPIIO-1VH2VL3 (antibody, V domains shown)
VH: QVQLQESGPGLVKPSQTLSLTCTVSGYSITSDYAWNWIRQFPGNKLEWMGYISYSGSTSYTPSLKSRITISRDTSKNHFFLKLSSVTAADTAVYYCAKSGGDYYGSSSYWYFDVWGQGTMVTVSS
VL: DIVLTQSPSSLAVSAGERVTMSCKSSQSLLNSRSQKNYLAWYQQKPGQPPKLLIYGASTRGSGVPDRFSGSGSGTDFTLTISSVQAEDVAVYYCQNDHSYPFTFGSGTKLEIKR
notes: Humanized IgG from Expi293, tested as culture supernatant; also called H2L3; HuPIIO-1VH2/L3
In the case of B5, the MFI in experiment [1] was 9.91 MFI; in experiment [2] it was 25.6 MFI; in experiment [3] it was 26.5 MFI; in experiment [4], 23.4 MFI; in [8], 25.4 MFI; in [5] it was 26.4 MFI. Moreover, the MFI was 23.2 MFI in [9] and 9.91 MFI in [6].

B6: huPIIO-1VH2VL1 (antibody, V domains shown)
VH: QVQLQESGPGLVKPSQTLSLTCTVSGYSITSDYAWNWIRQFPGNKLEWMGYISYSGSTSYTPSLKSRITISRDTSKNHFFLKLSSVTAADTAVYYCAKSGGDYYGSSSYWYFDVWGQGTMVTVSS
VL: DIVLTQSPSSLAVSLGERATMNCKSSQSLLNSRSQKNYLAWYQQKPGQPPKLLIYGASTRGSGVPDRFSGSGSGTDFTLTISSLQAEDVAVYYCQNDHSYPFTFGQGTKLEIKR
notes: Humanized IgG from Expi293; also called H2L1; HuPIIO-1VH2/L1
In the case of B6, the MFI in [1] is 9.91 MFI; in experiment [3], 26.8 MFI; in experiment [4], 23.3 MFI; in experiment [8] it was 25.1 MFI; in experiment [5] it was 26.2 MFI; in [9], 23 MFI. Also, the MFI in experiment [6] was determined as 9.91 MFI. For the same molecule, the Kd in experiment [7] was found to be 8.03 nM. The Req in experiment [7] came to 0.71. Further, in experiment [7], the Response was found to be 0.703. Besides, the kobs in experiment [7] stood at 0.0133.

B7: huPIIO-1VH1VL2 (antibody, V domains shown)
VH: QVQLQESGPGLVKPSQTLSLTCTVSGYSITSDYAWNWIRQFPGNKLEWMGYISYSGSTSYTPSLKSRVTISRDTSKNHFSLKLSSVTAADTAVYYCAKSGGDYYGSSSYWYFDVWGQGTMVTVSS
VL: DIVLTQSPSSLAVSLGERVTMNCKSSQSLLNSRSQKNYLAWYQQKPGQPPKLLIYGASTRGSGVPDRFSGSGSGTDFTLTISSVQAEDVAVYYCQNDHSYPFTFGQGTKLEIKR
notes: Humanized IgG from Expi293; also called H1L2; HuPIIO-1VH1/L2
For the molecule B7, the MFI in experiment [1] is 9.91 MFI; in experiment [2], 25.2 MFI; in [3] it was 26.1 MFI; in experiment [4], 22.2 MFI; in [5] it was 25.7 MFI; in experiment [9], 21.8 MFI. The molecule further displayed an MFI in [6] of 9.91 MFI. Also, the affinity in [7], expressed as Kd, was 8.15 nM. In [7], this molecule came in with a Req of 0.831. In experiment [7], this molecule had a Response of 0.824. Also, the kobs in experiment [7] was found to be 0.0133.

B8: huPIIO-1VH1VL3 (antibody, V domains shown)
VH: QVQLQESGPGLVKPSQTLSLTCTVSGYSITSDYAWNWIRQFPGNKLEWMGYISYSGSTSYTPSLKSRVTISRDTSKNHFSLKLSSVTAADTAVYYCAKSGGDYYGSSSYWYFDVWGQGTMVTVSS
VL: DIVLTQSPSSLAVSAGERVTMSCKSSQSLLNSRSQKNYLAWYQQKPGQPPKLLIYGASTRGSGVPDRFSGSGSGTDFTLTISSVQAEDVAVYYCQNDHSYPFTFGSGTKLEIKR
notes: Humanized IgG from Expi293, tested as culture supernatant; also called H1L3; HuPIIO-1VH1/L3
Regarding B8, the MFI in [1] was 9.91 MFI; in [2] it was 25.7 MFI; in [3], 26.3 MFI; in experiment [4] it was 22.9 MFI; in experiment [8], 25.4 MFI; in experiment [5], 26.3 MFI. The MFI in experiment [9] is 23 MFI; in experiment [6], 9.91 MFI.

B9: huPIIO-1VH3VL3 (antibody, V domains shown)
VH: DVQLQESGPGLVKPSQTLSLTCTVSGYSITSDYAWNWIRQFPGNKLEWMGYISYSGSTSYTPSLKSRITISRDTSKNHFFLKLSSVTAADTATYYCAKSGGDYYGSSSYWYFDVWGQGTTVTVSS
VL: DIVLTQSPSSLAVSAGERVTMSCKSSQSLLNSRSQKNYLAWYQQKPGQPPKLLIYGASTRGSGVPDRFSGSGSGTDFTLTISSVQAEDVAVYYCQNDHSYPFTFGSGTKLEIKR
notes: Humanized IgG from Expi293, tested as culture supernatant; also called H3L3; HuPIIO-1VH3/L3
On to B9, for which the MFI in experiment [1] amounted to 9.91 MFI; in experiment [2] it was 25.3 MFI; in [3], 26.2 MFI; in [4], 21.9 MFI; in [8], 24.6 MFI; in experiment [5] it was 25.8 MFI. For the same molecule, the MFI in [9] is 22.1 MFI; in [6] it was 9.91 MFI.
